Experimental data as given in patent publication US20230203146A1 (Boehringer Ingelheim, published 2023).
Like-named read-outs stand apart in the source and are kept apart here.

T1: N-terminally FLAG-tagged mouse Ang2 (HEK293T conditioned medium) (mouse, UniProt O35608 19-496)
T1 construct: may be a nucleotide entry; also called mAng2; FLAG-mAng2
T1 sequence: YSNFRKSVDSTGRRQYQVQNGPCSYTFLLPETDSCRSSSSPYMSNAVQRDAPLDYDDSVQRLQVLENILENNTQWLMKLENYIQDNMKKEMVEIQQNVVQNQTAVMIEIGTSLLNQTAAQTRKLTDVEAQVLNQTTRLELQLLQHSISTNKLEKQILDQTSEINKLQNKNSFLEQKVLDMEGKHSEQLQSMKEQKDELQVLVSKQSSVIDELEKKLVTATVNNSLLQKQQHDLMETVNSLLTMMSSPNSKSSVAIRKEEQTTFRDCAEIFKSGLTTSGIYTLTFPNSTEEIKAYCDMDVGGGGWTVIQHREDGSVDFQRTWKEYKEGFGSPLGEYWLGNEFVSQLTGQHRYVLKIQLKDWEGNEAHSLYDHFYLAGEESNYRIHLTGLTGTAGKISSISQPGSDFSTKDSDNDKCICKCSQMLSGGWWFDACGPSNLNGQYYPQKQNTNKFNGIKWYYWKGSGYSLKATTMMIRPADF

T2: FLAG-tagged cynomolgus Ang2 (cynomolgus, UniProt O15123 19-496 (human entry), limits assumed)
T2 construct: N-terminally FLAG-tagged, conditioned medium of HEK293T cells; also called cAng2; FLAG-cAng2
T2 chain: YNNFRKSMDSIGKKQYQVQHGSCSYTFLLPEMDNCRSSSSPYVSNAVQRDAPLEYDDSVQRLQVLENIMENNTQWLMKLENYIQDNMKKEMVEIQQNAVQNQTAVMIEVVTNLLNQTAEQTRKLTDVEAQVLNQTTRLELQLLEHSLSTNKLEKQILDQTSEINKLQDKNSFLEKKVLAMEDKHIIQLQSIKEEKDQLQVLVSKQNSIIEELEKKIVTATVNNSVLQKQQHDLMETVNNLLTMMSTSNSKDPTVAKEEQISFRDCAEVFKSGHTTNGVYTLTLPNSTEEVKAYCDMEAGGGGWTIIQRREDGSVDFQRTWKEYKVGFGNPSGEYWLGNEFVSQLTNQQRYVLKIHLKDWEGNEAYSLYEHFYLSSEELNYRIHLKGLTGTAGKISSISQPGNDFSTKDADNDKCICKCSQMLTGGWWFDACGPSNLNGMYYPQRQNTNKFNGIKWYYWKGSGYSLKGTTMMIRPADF

T3: FLAG-tagged mouse Ang2 (mouse, UniProt O35608 19-496)
T3 construct: N-terminally FLAG-tagged, conditioned medium of HEK293T cells; also called mAng2; FLAG-mAng2
T3 sequence: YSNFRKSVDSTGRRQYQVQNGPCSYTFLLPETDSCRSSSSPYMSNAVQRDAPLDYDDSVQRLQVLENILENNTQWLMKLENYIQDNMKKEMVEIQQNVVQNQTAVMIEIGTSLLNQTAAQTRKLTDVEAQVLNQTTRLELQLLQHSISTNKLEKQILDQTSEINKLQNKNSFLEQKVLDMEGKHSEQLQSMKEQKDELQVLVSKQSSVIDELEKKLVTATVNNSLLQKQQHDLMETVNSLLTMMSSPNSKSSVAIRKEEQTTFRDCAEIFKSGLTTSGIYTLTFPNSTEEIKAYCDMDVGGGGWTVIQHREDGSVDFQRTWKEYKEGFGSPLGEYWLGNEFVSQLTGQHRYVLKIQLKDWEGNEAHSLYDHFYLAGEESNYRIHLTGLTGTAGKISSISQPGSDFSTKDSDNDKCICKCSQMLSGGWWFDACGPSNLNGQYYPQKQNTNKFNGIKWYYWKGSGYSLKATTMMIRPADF


How the values were obtained:
[1] = target: T1, N-terminally FLAG-tagged mouse Ang2 …; assay: competition ELISA, FLAG-mAng2 on coated mTie2-Fc
Experimental: (§1) In brief, 2 μg/mL of recombinant mouse Tie2-Fc or cyno Tie2-Fc is coated overnight at 4° C. in a 96-well MaxiSorp plate (Nunc, Wiesbaden, Germany). Coated wells are blocked with a 1% casein solution.

[2] = target: T2, FLAG-tagged cynomolgus Ang2; assay: competition ELISA: FLAG-cAng2 binding to coated cTie2-Fc
Experimental: as §1

FLAG-tagged mouse Ang2 [3] = target: T3, FLAG-tagged mouse Ang2; assay: competition ELISA: FLAG-mAng2 binding to coated mTie2-Fc
Experimental: as §1

FLAG-tagged mouse Ang2 [4] = target: T3, FLAG-tagged mouse Ang2; assay: as above; remark: listed apart in the source
Experimental: as §1

Binder | IC50 [1] [nM] | IC50 [2] [nM] | IC50 (FLAG-tagged mouse Ang2 [3]) [nM] | IC50 (FLAG-tagged mouse Ang2 [4]) [nM]
VHH 2F04 (VHH, also called 002F04; not shown: C-terminal c-myc tag and His6 tag) VHH: EVQLVESGGGLVQAGGSLRLSCAASGFAFDDHLIGWFRQAPGKEREAVSCISRSAGSTYYADSVKGRFTISSDNAKNTVYLQMNSLKADDTAVYYCAAGPAWGRPASPLPYEYDYWGQGTQVTVSS | 57.4 | – | – | –
VHH 3A07 (VHH, also called 003A07; not shown: C-terminal c-myc tag and His6 tag) VHH: EVQLVESGGGLVQPGGSLRLSCAASGFTLDYDAIGWFRQAPGKEREGVSCITSSDGITYYADSVKGRFTISRDNAKNTVYLQMNSLKPEDTAVYYCATGNRRIYYSDYALACFPYEYDYWGQGTQVTVSS | 99.3 | – | – | –
VHH 3F02 (VHH, also called 003F02; not shown: C-terminal c-myc tag and His6 tag) VHH: EVQLVESGGGLVQVGDSLRLACAASGRTFSTYLMVGWFRQAPGKEREFAAGIWSSGDTAYADSVKGRFTISRDNAKNTVYLQMNSLKTEDTAVYYCAGSYDGNYYIPGFYKDWGQGTQVTVSS | 32.7 | – | – | –
VHH 6H05 (VHH, also called 006H05; not shown: C-terminal c-myc tag and His6 tag) VHH: EVQLVESGGGLVQAGGSLRLSCAASGFTFDDYAIGWFRQAPGKEREGVSCISSSDGSTAYADSVKGRFTISSDNAKNTVYLQMNSLKPEDTAVYYCTAVPATRRTPQMVAANVCWLAEYEYDYWGQGTQVTVSS | 7.7 | – | – | –
VHH 10C06 (VHH, also called 010C06; not shown: C-terminal c-myc tag and His6 tag) VHH: EVQLVESGGGLVQAGGSLRLSCVASGFTFDDYAIGWFRQAPGKEREGVSCISSSDGSTYYADSVKGRFTISGDNAKNTVYLQMNSLKPEDTAVYYCAAGITPCSDYTQTYEYDVWGQGTQVTVSS | 45.2 | – | – | –
VHH 12B03 (VHH, also called 012B03; not shown: C-terminal c-myc tag and His6 tag) VHH: EVQLVESGGGLVQSGGSLRLSCAASGFALDYYTIGWFRQAPGKEREGVSCISGGDTSTYYADSVKGRFTISRDNAKNTVYLQMNSLKPEDTAVYYCATDSAGVPAGPAAVYGSTCSRLEYDYWGQGAQVTVSS | 6.7 | – | – | –
VHH 14H02 (VHH, also called 014H02; not shown: C-terminal c-myc tag and His6 tag) VHH: EVQLVESGGGLVQAGGSLRLSCAASGFTFDEYAIGWFRQAPGKEREGVSYISSSDGSTYYADSVKGRVTSSSDNAKNTVYLQMNSLKPEDTAVYYCAARPTLRVRLDNDRHHLLYEYEYDYWGQGTQVTVSS | 143 | – | – | –
VHH 16G09 (VHH, also called 016G09; not shown: C-terminal c-myc tag and His6 tag) VHH: EVQLVESGGGLVQAGGSLRLVCSASGIDFSINAMAWYRQAPGKQREWVAFMINDSSTDYTDSVKGRFTISRDSTKNILYLQMNNLNVEDTAVYYCNTAYEQHTYWGQGTQVTVSS | 19.4 | – | – | –
VHH 21G10 (VHH, also called 021G10; not shown: C-terminal c-myc tag and His6 tag) VHH: EVQLVESGGGLVQAGGSLRLSCAASGFTLDDYAIGWFRQAPGKEREGVSCISSSDGSTTYADSVKGRFTVSSDNAKNTVYLQMNSLKPEDTAVYYCAAGLRGRYYRGTYSLVCAPYEYDFWGQGTQVTVSS | 16.8 | – | – | –
VHH 00025 (VHH, not shown: small tags and cut ends) VHH: EVQLVESGGGLVQAGGSLRLSCAASGFTLDDYAIGWFRQAPGKEREGVSTIRDSDGSTYYADSVKGRFTISSDNDKNTVYLQMNSLKPEDTAVYYCAAVPAGRLRFGEQWYPLYEYDAWGQGTLVTVSS | – | 1.7 | 4.9 | –
VHH 00026 (VHH, not shown: small tags and cut ends) VHH: EVQLVESGGGLVQAGGSLRLSCAASGFTLDDYAIGWFRQAPGKEREGVSAIRDSDGSTYYADSVKGRFTISSDNDKNTVYLQMNSLKPEDTAVYYCAAVPAGRLRFGEQWYPLYEYDAWGQGTLVTVSS | – | 1.1 | 2.6 | –
VHH 00041 (VHH, not shown: small tags and cut ends) VHH: EVQLVESGGGLVQPGGSLRLSCAASGFTLDDYAIGWFRQAPGKEREGVSSIRDNDGSTYYADSVKGRFTISSDNAKNTVYLQMNSLRPEDTAVYYCAAVPAGRLRFGEQWYPLYEYDAWGQGTLVTVSS | – | 0.9 | 1.7 | –
VHH 00043 (VHH, not shown: small tags and cut ends) VHH: EVQLVESGGGLVQPGGSLRLSCAASGFTLDDYAIGWFRQAPGKEREGVSSIRDNDGSTYYADSVKGRFTISRDNAKNTVYLQMNSLRPEDTAVYYCAAVPAGRLRFGEQWYPLYEYDAWGQGTLVTVSS | – | 12.6 | 29.2 | –
VHH 00048 (VHH, not shown: small tags and cut ends) VHH: EVQLVESGGGLVQAGGSLRLSCAASGFTLDDYAIGWFRQAPGKEREGVSSIRDSDGSTYYADSVKGRFTISSDNDKNTVYLQMNSLKPEDTAVYYCAAVPAGRLRFGEQWYPLYEYDAWGQGTLVTVSS | – | 1 | 2.1 | –
VHH 1D01 (VHH, not shown: small tags and cut ends, Parental llama VHH; also called 001D01) VHH: EVQLVESGGGLVQAGGSLRLSCAASGFTFDDYALGWFRQAAGKEREGVSCIRCSDGSTYYADSVKGRFTISSDNAKNTVYLQMNSLKPEDTAVYYCAASIVPRSKLEPYEYDAWGQGTQVTVSS | – | 9.1 | – | 12.4
VHH 00039 (VHH, not shown: small tags and cut ends) VHH: EVQLVESGGGLVQPGGSLRLSCAASGFTFDDYALGWFRQAAGKEREGVSCIRCSDGSTYYADSVKGRFTISRDNSKNTVYLQMNSLRPEDTAVYYCAASIVPRSKLEPYEYDAWGQGTLVTVSS | – | 6.4 | – | 28.1
VHH 00040 (VHH, not shown: small tags and cut ends) VHH: EVQLVESGGGLVQPGGSLRLSCAASGFTFDDYALGWFRQAPGKEREGVSCIRCSDGSTYYADSVKGRFTISRDNSKNTVYLQMNSLRPEDTAVYYCAASIVPRSKLEPYEYDAWGQGTLVTVSS | – | 5.8 | – | 29
VHH 00049 (VHH, not shown: small tags and cut ends) VHH: EVQLVESGGGLVQPGGSLRLSCAASGFTFDDYALGWFRQAAGKEREGVSCIRCSDGSTYYADSVKGRFTISSDNSKNTVYLQMNSLRPEDTAVYYCAASIVPRSKLEPYEYDAWGQGTLVTVSS | – | 4.5 | – | 20.3
VHH 00050 (VHH, not shown: small tags and cut ends) VHH: EVQLVESGGGLVQPGGSLRLSCAASGFTFDDYALGWFRQAPGKEREGVSCIRCSDGSTYYADSVKGRFTISSDNSKNTVYLQMNSLRPEDTAVYYCAASIVPRSKLEPYEYDAWGQGTLVTVSS | – | 4.8 | – | 18.6
VHH 00051 (VHH, not shown: small tags and cut ends) VHH: EVQLVESGGGLVQPGGSLRLSCAASGFTFDDYALGWFRQAAGKEREGVSCIRCSGGSTYYADSVKGRFTISSDNSKNTVYLQMNSLRPEDTAVYYCAASIVPRSKLEPYEYDAWGQGTLVTVSS | – | 15 | – | 37.9
VHH 00925 (VHH, not shown: small tags and cut ends) VHH: DVQLVESGGGLVQPGGSLRLSCAASGFTFDDYALGWFRQAPGKEREGVSCIRCSGGSTYYADSVKGRFTISSDNSKNTVYLQMNSLRPEDTAVYYCAASIVPRSKLEPYEYDAWGQGTLVTVSS | – | 33 | – | 28.4
VHH 00044 (VHH, not shown: small tags and cut ends) VHH: EVQLVESGGGLVQPGGSLRLSCAASGFALDYYAIGWFRQAPGKEREGVSCISSSDGITYYVDSVKGRFTISRDNSKNTVYLQMNSLRPEDTAVYYCATDSGGYIDYDCMGLGYDYWGQGTLVTVSS | – | 0.13 | – | 0.091
VHH 00045 (VHH, not shown: small tags and cut ends) VHH: EVQLVESGGGLVQPGGSLRLSCAASGFALDYYAIGWFRQAPGKEREGVSCISSSDGITYYADSVKGRFTISRDNSKNTVYLQMNSLRPEDTAVYYCATDSGGYIDYDCMGLGYDYWGQGTLVTVSS | – | 0.16 | – | 0.11
VHH 00046 (VHH, not shown: small tags and cut ends) VHH: EVQLVESGGGLVQPGGSLRLSCAASGFALDYYAIGWFRQAPGKEREGVSCISSSGGITYYVDSVKGRFTISRDNSKNTVYLQMNSLRPEDTAVYYCATDSGGYIDYDCMGLGYDYWGQGTLVTVSS | – | 0.16 | – | 0.083
